Experimental data reported in patent publication US20210087522.

Key:
[1] = target: T1, SsPCP, PCP of a thaxtomin cluster from Streptomyces scabiei 87.22
T1 chain: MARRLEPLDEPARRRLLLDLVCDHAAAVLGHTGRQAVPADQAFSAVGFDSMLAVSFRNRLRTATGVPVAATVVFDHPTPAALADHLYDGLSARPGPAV

[2] = target: T2, FNsACP, homolog of ArCPNp from Fischerella
T2 chain: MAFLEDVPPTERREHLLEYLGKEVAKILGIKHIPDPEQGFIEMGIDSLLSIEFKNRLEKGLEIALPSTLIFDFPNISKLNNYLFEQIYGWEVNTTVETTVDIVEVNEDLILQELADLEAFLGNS

[3] = target: T3, FNPCP, CP of an uncharacterized NRP gene cluster from Fischerella
T3 chain: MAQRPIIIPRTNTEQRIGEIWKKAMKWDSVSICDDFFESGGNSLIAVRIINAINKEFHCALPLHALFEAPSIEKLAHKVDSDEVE

[4] = target: T4, AFACP, ACP of the FAS from Anabaena
T4 chain: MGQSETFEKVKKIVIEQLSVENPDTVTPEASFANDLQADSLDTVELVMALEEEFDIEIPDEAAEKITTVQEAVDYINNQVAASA

[5] = target: ScACP, ACP of a putative concanamycin gene cluster from Streptomyces coelicolor A(3)2
[6] = target: T5, MACP, CP of an uncharacterized NRP/PK gene cluster from M. aeruginosa NIES843
T5 chain: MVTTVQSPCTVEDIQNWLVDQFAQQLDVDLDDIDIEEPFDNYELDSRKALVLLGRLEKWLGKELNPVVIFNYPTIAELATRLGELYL

[7] = target: T6, APACP, ACP of the glycolipid PKS in Anabaena
T6 chain: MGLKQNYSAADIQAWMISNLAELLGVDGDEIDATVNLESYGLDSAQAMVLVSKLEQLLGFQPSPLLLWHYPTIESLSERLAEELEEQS

[8] = target: AprACP, ACP of the apratoxin (PK/NRP) gene cluster in Lyngbya sp.
[9] = target: T7, SFACP, ACP of the FAS from Synechocystis
T7 chain: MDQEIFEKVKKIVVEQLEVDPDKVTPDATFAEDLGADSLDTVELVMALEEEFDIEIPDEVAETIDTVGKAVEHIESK

[10] = target: T8, FisPCP, PCP of the shinorine gene cluster from Fischerella
T8 chain: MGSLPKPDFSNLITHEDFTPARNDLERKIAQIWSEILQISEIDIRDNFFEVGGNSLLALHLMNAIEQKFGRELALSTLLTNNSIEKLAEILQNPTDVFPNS

[11] = target: T9, APNPCP, CP of an uncharacterized NRP/PK gene cluster from Anabaena
T9 chain: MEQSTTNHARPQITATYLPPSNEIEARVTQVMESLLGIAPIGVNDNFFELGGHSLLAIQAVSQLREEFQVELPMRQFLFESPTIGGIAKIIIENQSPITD

B1: MPPT, Sfp-like phosphopantetheinyl transferase (PPTase) from Microcystis aeruginosa NIES843 (protein)
chain: MFISTDEVHLYFISLDPSGDRLETLASLLSEDEIIRANRYHFPEHKRRFLVARGCLREILGSYLAISPEKIEFIYSERGKPSINYQLQFNLSHSEEMAICGLTLTARIGVDLEKMRQMKDLDSLTKRFFCAREHELVEKSAEKEKLFFQLWTAKEAYLKAVGTGISGGLDRVEVGLNPLKLDNVAGEWQLWTAAIGDNYRATVVIEGSDRVIKTFGLSDL
Q: What does the source list for B1?
A: Km [1]: 9.1 µM; kcat [1]: 0.118 s⁻¹; kcat/Km [1]: 11700 M⁻¹ s⁻¹; phosphopantetheinylation of CP (apo to holo), LC-MS [1]: APPT, AvPPT, MPPT and Sfp functionalized all substrates; relative activity (most active PPTase = 100%) [1]: This enzyme also displayed a modest relative activity toward ScACP and SsPCP; Km [2]: 8.3 µM; kcat [2]: 0.035 s⁻¹; kcat/Km [2]: 5000 M⁻¹ s⁻¹; phosphopantetheinylation of CP (apo to holo), LC-MS [2]: APPT, AvPPT, MPPT and Sfp functionalized all substrates; relative activity (most active PPTase = 100%) [2]: MPPT showed >84% relative activity toward all nine cyanobacterial CPs; Km [3]: 7.2 µM; kcat [3]: 0.16 s⁻¹; kcat/Km [3]: 21700 M⁻¹ s⁻¹; phosphopantetheinylation of CP (apo to holo), LC-MS [3]: APPT, AvPPT, MPPT and Sfp functionalized all substrates; relative activity (most active PPTase = 100%) [3]: MPPT showed >84% relative activity toward all nine cyanobacterial CPs; Km [4]: 6.9 µM; kcat [4]: 0.14 s⁻¹; kcat/Km [4]: 20000 M⁻¹ s⁻¹; phosphopantetheinylation of CP (apo to holo), LC-MS [4]: APPT, AvPPT, MPPT and Sfp functionalized all substrates; relative activity (most active PPTase = 100%) [4]: MPPT showed >84% relative activity toward all nine cyanobacterial CPs; Km [5]: 12.4 µM; kcat [5]: 0.0433 s⁻¹; kcat/Km [5]: 3330 M⁻¹ s⁻¹; phosphopantetheinylation of CP (apo to holo), LC-MS [5]: APPT, AvPPT, MPPT and Sfp functionalized all substrates; relative activity (most active PPTase = 100%) [5]: This enzyme also displayed a modest relative activity toward ScACP and SsPCP; Km [6]: 4.9 µM; kcat [6]: 0.07 s⁻¹; kcat/Km [6]: 15000 M⁻¹ s⁻¹; phosphopantetheinylation of CP (apo to holo), LC-MS [6]: APPT, AvPPT, MPPT and Sfp functionalized all substrates; relative activity (most active PPTase = 100%) [6]: MPPT showed >84% relative activity toward all nine cyanobacterial CPs including the highest activity on MACP; Km [7]: 23.1 µM; kcat [7]: 0.353 s⁻¹; kcat/Km [7]: 15000 M⁻¹ s⁻¹; phosphopantetheinylation of CP (apo to holo), LC-MS [7]: APPT, AvPPT, MPPT and Sfp functionalized all substrates; relative activity (most active PPTase = 100%) [7]: MPPT showed >84% relative activity toward all nine cyanobacterial CPs; Km [8]: 9.1 µM; kcat [8]: 0.173 s⁻¹; kcat/Km [8]: 18300 M⁻¹ s⁻¹; phosphopantetheinylation of CP (apo to holo), LC-MS [8]: APPT, AvPPT, MPPT and Sfp functionalized all substrates; relative activity (most active PPTase = 100%) [8]: MPPT showed >84% relative activity toward all nine cyanobacterial CPs; Km [9]: 3.2 µM; growth of Synechocystis mutant with the SPPT gene replaced [9]: demonstrated their in vivo function as activating SFACP for the synthesis of essential fatty acids; kcat [9]: 0.02 s⁻¹; kcat/Km [9]: 6670 M⁻¹ s⁻¹; phosphopantetheinylation of CP (apo to holo), LC-MS [9]: APPT, AvPPT, MPPT and Sfp functionalized all substrates; relative activity (most active PPTase = 100%) [9]: MPPT showed >84% relative activity toward all nine cyanobacterial CPs; Km [10]: 7.2 µM; kcat [10]: 0.0317 s⁻¹; kcat/Km [10]: 5000 M⁻¹ s⁻¹; phosphopantetheinylation of CP (apo to holo), LC-MS [10]: APPT, AvPPT, MPPT and Sfp functionalized all substrates; relative activity (most active PPTase = 100%) [10]: MPPT showed >84% relative activity toward all nine cyanobacterial CPs; Km [11]: 9.5 µM; kcat [11]: 0.0317 s⁻¹; kcat/Km [11]: 3330 M⁻¹ s⁻¹; phosphopantetheinylation of CP (apo to holo), LC-MS [11]: APPT, AvPPT, MPPT and Sfp functionalized all substrates; relative activity (most active PPTase = 100%) [11]: MPPT showed >84% relative activity toward all nine cyanobacterial CPs
